Measurements as given in US20220347324A1 (Bristol-Myers Squibb, published 2022).
Each block holds one binder with its values, some of them ahead of it.

How the values were obtained:
[1] = target: T1, human PD-L1 expressed on cells (hPD-L1-positive L2987 cells, L2987 xenografts, human lung tumor tissue) (human, UniProt Q9NZQ7 19-290); assay: cell binding to human PD-L1 positive L2987 cells; Adnectin marked (Cys-Capped)
T1 construct: whole, on cells; also called hPD-L1(+) L2987; PD-L1 positive cells L2987

[2] = target: T1, human PD-L1 expressed on cells …; assay: radiotracer cell binding, 1 h on ice, gamma counter
Experimental: After the incubation period, cell samples were centrifuged at 200×g and the supernatant was discarded. Cell pellets were resuspended in 1 mL PBS+0.5% BSA and the wash procedure repeated for a total of 3 washes. Following the final wash, cells were again centrifuged at 200×g and the supernatant was discarded. The radioactivity of the remaining cell pellets was then measured by gamma counter.

[3] = target: T1, human PD-L1 expressed on cells …; assay: in vivo PET in mice with bilateral xenografts, last 10 min of a 2 h scan
Experimental: (§1) A 10-minute transmission image was first acquired using a ⁵⁷Co point source for the purpose of attenuation correction of the final PET images. Following the transmission scan, radiotracer solutions were administered via the previously installed tail vein catheters and a 2 hour emission image was acquired. […] All injections were formulated in 200 μL saline prior to injection. Exact injected doses were calculated by taking direct measurements of the formulated dose and subtracting the radioactivity remaining in the syringe and the tail vein catheter.
(§2) Images were reconstructed using a maximum a posteriori (MAP) algorithm with attenuation correction using the collected transmission images and corrected for radioisotope decay. In the final images, regions of interest (ROIs) were drawn around the tumor boundary using ASIPro software (Siemens Preclinical Solutions). Time-activity curves were calculated for each ROI to yield a quantitative view of radiotracer within the tumor volume over the course of the 2 hour emission image. For final comparison, individual time-activity curves were normalized based on the injected radiotracer dose for each specific animal. Radiotracer uptake was compared across tumors using the final 10 minutes of each time-activity curve (1 hour 50 minutes-2h post-radiotracer injection).

[4] = target: T1, human PD-L1 expressed on cells …; assay: in vivo PET in mice, co-injected with 3 mg/kg unlabeled A02 Adnectin as competitor
Experimental: as §1, §2

[5] = target: T1, human PD-L1 expressed on cells …; assay: in vivo PET in mice with bilateral xenografts
Text: Briefly, nude mice were subcutaneously implanted bilaterally with HT-29 and L2987 cells. Once tumors reached approximately 200-300 mm³, animals were selected for imaging. Mice were anesthetized with 2% isoflurane in oxygen and placed onto the imaging bed of a Focus 120 PET imaging system (Siemens Preclinical Solutions). […] A 10-minute transmission image was then collected using a ⁵⁷Co point source for use as attenuation correction. Images were reconstructed using a 3D maximum a posteriori algorithm with attenuation correction using AsiPro software (Siemens Preclinical Solutions).

B3: 64Cu-A02-NODAGA (designed binder)
chain: GVSDVPRDLEVVAATPTSLLISWSYDGPIDRYYRITYGETGGNSPVQEFTVPPDQKTATISGLKPGVDYTITVYAVRLEEAHYNREFPISINYRTPC
modifications: C-terminal cysteine linked by maleimide to NODAGA chelating 64Cu
notes: A02 with C-terminal PC; also called NODAGA-64Cu-labeled A02 anti-PD-L1 Adnectin
radiotracer uptake, hPD-L1(+) L2987 xenografts against hPD-L1(-) HT-29 xenografts [3]: 3.05 fold
radiotracer uptake, hPD-L1(+) L2987 xenografts against hPD-L1(-) HT-29 xenografts, with cold competitor [4]: 1.04 fold

B4: [18F]-A02-4PEG-DBCO-FPPEGA (designed binder)
chain: GVSDVPRDLEVVAATPTSLLISWSYDGPIDRYYRITYGETGGNSPVQEFTVPPDQKTATISGLKPGVDYTITVYAVRLEEAHYNREFPISINYRTPC
modifications: C-terminal cysteine linked to Maleamide-DBCO-FFP(18F)
notes: also called 18F-DBCO-A02 anti-PD-L1 Adnectin; ADX_5322_A02-Mal-DBCO-FFPF18
maximum radiotracer uptake ratio, hPD-L1(+) L2987 against hPD-L1(-) HT-29 xenografts [5]: 3.53 ratio

Continued, values first:

EC50 [1]: 430 pM
B1: ADX_5322_A02 (designed binder)
chain: MGVSDVPRDLEVVAATPTSLLISWSYDGPIDRYYRITYGETGGNSPVQEFTVPPDQKTATISGLKPGVDYTITVYAVRLEEAHYNREFPISINYRTPCHHHHHH
notes: C-terminus NYRTPCH6

fold cell associated radioactivity, hPD-L1-positive L2987 cells against hPD-L1-negative HT-29 cells [2]: 44.6 fold
B2: 64Cu-E01-NODAGA (designed binder)
chain: GVSDVPRDLEVVAATPTSLLISWRAQLSPSFYYRITYGETGGNSPVQEFTVPNDVMTATISGLKPGVDYTITVYAVTTHGVYFYSPISINYRTPC
modifications: C-terminal cysteine linked by maleimide to NODAGA chelating 64Cu
notes: E01 with C-terminal PC (ADX_5417_E01 w/ N leader and modified C-terminus); also called 64Cu-E01 anti-PD-L1 Adnectin
